Experimental data: paper PMC2150914

Target: taxol-stabilized microtubules polymerized in Xenopus egg extract (Xenopus (endogenous in Xenopus egg extract))
Assay: co-sedimentation

- percent bound: < 70%
Substance: X-p21-activated kinase (PAK)5, endogenous (natural protein)
